The source of these data is article PMC11874658, “CmHRE2L-CmACS6 transcriptional cascade negatively regulates waterlogging tolerance in Chrysanthemum”.

In this series the target is CmHRE2-like (CmHRE2L) (UniProt A0AA96PUJ9 1-225). In words: EMSA; LightShift Chemiluminescent EMSA Kit (Thermo Fisher); buffer, salt, pH and temperature not stated. The note with it: protein: recombinant; tags: GST (pGEX4T-1, N-terminal); label: biotin. (In general: A gel shift assay detects complexes by their altered migration in electrophoresis.)
CmHRE2-like (CmHRE2L), sequence (A0AA96PUJ9 entry or part of it): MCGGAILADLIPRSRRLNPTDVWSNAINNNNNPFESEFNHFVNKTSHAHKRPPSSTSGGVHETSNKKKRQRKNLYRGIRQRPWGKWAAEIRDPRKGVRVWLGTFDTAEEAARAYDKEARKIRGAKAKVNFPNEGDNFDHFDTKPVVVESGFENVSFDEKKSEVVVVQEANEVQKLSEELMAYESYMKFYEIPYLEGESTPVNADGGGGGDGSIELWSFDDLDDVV

B1: Biotin-mP, probe with mutated cis-element 3 (dsDNA)
DNA 1: ACCTTCATATGCATGAAAAAAAAATTTTCCACTCAACA
DNA 2: TGTTGAGTGGAAAATTTTTTTTTCATGCATATGAAGGT
With B1, the binding result was “no binding”.
